Entries after “also recorded” stand apart in the source; their conditions may differ.
Columns and labels:
CHS = settings: cited from earlier work
[1] = biological target: 2-Pyrone synthase (2-PS) from Gerbera hybrida (Gerbera hybrida); test: X-ray crystal structure, homodimer interface
[2] = Malonyl-CoA decarboxylation by C164S mutant (crystallographic and functional assay); assay type: biochemical
Description: Asn336 appears to play a crucial role in the decarboxylation reaction. […] In the hexanoyl-CoA complex, the side chain amide of Asn336 provides a hydrogen bond to the carbonyl oxygen of the thioester. This interaction would stabilize the enolate anion resulting from decarboxylation of malonyl-CoA (see FIG. 6). At the same time, the lack of formal positive charge at Asn336 may preserve the partial carbanion character of this resonance-stabilized anion, and thus the nucleophilicity of the carbanion form.

[3] = 14C malonyl-CoA assay of CHS mutants, products analysed by TLC and autoradiography (naringenin vs resveratrol); assay type: biochemical; settings: TLC autoradiography
Description: Wild type CHS produces chalcone, which spontaneously converts to naringenin, the position of which is indicated by the arrow on the left. Wild type STS produces resveratrol, the position of which is indicated by the arrow of the right. Function conversion of CHS to STS (i.e., the production of the alternate product from the same intermediate) results in diminished production of naringenin and increased production of resveratrol. Various mutants of CHS produce varying degrees of resveratrol, showing that CHS activity can be altered to STS-like activity to different extents by different mutations.
Mutant CHS (SEQ ID NO: 1) has altered activity based on assays conducted with ^14C malonyl-CoA. Products were extracted with ethyl acetate and analyzed by silica gel thin layer chromatography (TLC) and visualized by autoradiography.

[4] = Activity and kinetics of 18xCHS / 8xCHS compared with wild type CHS and STS; assay type: biochemical; settings: listed as 8×CHS

Q: Which “inhibition of CHS” value (CHS) does the source give for `C/C=C/C/C=C/CCC(=O)[C@H]1O[C@H]1C(N)=O` [Cerulenin] here?
A: Its value is “potent irreversible inhibitor of CHS”.

Q: And the “inactivation of CHS after preincubation with substrate” value (CHS; preincubation with coumaroyl-CoA or malonyl-CoA)?
A: Its value is “Preincubation of CHS with coumaroyl-CoA prevents inactivation by cerulenin, but pre-incubation with malonyl-CoA does not”.

Q: Which surface area buried per monomer by the dimerization surface [1] does the source give for “2-Pyrone synthase (2-PS) from Gerbera hybrida (enzyme)” here?
A: Its surface area buried per monomer by the dimerization surface is 1800 Å^2.

B1: C164S: alfalfa CHS C164S mutant (protein, listed as Medicago sativa)
chain: MVSVSEIRKAQRAEGPATILAIGTANPANCVEQSTYPDFYFKITNSEHKTELKEKFQRMCDKSMIKRRYMYLTEEILKENPNVCEYMAPSLDARQDMVVVEVPRLGKEAAVKAIKEWGQPKSKITHLIVCTTSGVDMPGADYQLTKLLGLRPYVKRYMMYQQGSFAGGTVLRLAKDLAENNKGARVLVVCSEVTAVTFRGPSDTHLDSLVGQALFGDGAAALIVGSDPVPEIEKPIFEMVWTAQTIAPDSEGAIDGHLREAGLTFHLLKDVPGIVSKNITKALVEAFEPLGISDYNSIFWIAHPGGPAILDQVEQKLALKPEKMNATREVLSEYGNMSSACVLFILDEMRKKSTQNGLKTTGEGLEWGVLFGFGPGLTIETVVLRSVAI
Q: For B1, which “catalytic / decarboxylation activity on malonyl-CoA” value [2] is on record?
A: The value was “retains decarboxylation activity; also recorded: retains limited catalytic activity; also recorded: produces acetyl-CoA”.

B2: A4: alfalfa CHS mutant: A4 (L268K, K269G, D270A, G273D) (protein, UniProt P30074 1-389, looked up, variant L268K K269G D270A G273D)
Chalcone synthase 2: MVSVSEIRKAQRAEGPATILAIGTANPANCVEQSTYPDFYFKITNSEHKTELKEKFQRMCDKSMIKRRYMYLTEEILKENPNVCEYMAPSLDARQDMVVVEVPRLGKEAAVKAIKEWGQPKSKITHLIVCTTSGVDMPGADYQLTKLLGLRPYVKRYMMYQQGCFAGGTVLRLAKDLAENNKGARVLVVCSEVTAVTFRGPSDTHLDSLVGQALFGDGAAALIVGSDPVPEIEKPIFEMVWTAQTIAPDSEGAIDGHLREAGLTFHLKGAVPDIVSKNITKALVEAFEPLGISDYNSIFWIAHPGGPAILDQVEQKLALKPEKMNATREVLSEYGNMSSACVLFILDEMRKKSTQNGLKTTGEGLEWGVLFGFGPGLTIETVVLRSVAI
Q: For B2, which “product profile (naringenin or chalcone versus resveratrol), cyclization specificity” value [3] is on record?
A: The value was “no effect on cyclization specificity”.

B3: 16B: alfalfa CHS mutant: V98L, T131S, S133T, G134T, V135P, M137L, M158G, Y160F (protein, UniProt P30074 1-389, looked up, variant V98L T131S S133T G134T V135P M137L M158G Y160F)
Chalcone synthase 2: MVSVSEIRKAQRAEGPATILAIGTANPANCVEQSTYPDFYFKITNSEHKTELKEKFQRMCDKSMIKRRYMYLTEEILKENPNVCEYMAPSLDARQDMLVVEVPRLGKEAAVKAIKEWGQPKSKITHLIVCSTTTPDLPGADYQLTKLLGLRPYVKRYGMFQQGCFAGGTVLRLAKDLAENNKGARVLVVCSEVTAVTFRGPSDTHLDSLVGQALFGDGAAALIVGSDPVPEIEKPIFEMVWTAQTIAPDSEGAIDGHLREAGLTFHLLKDVPGIVSKNITKALVEAFEPLGISDYNSIFWIAHPGGPAILDQVEQKLALKPEKMNATREVLSEYGNMSSACVLFILDEMRKKSTQNGLKTTGEGLEWGVLFGFGPGLTIETVVLRSVAI
Q: With B3 as the molecule, how does the “activity and kinetics compared with STS” value [4] read?
A: Its value is “activity that is similar to the 18×CHS mutant”.

Q: And the naringenin amount [3]?
A: Its naringenin amount is “reduced amounts of naringenin compared to wild type CHS”.

Q: What about the resveratrol amount [3] of the same molecule?
A: The resveratrol amount was “various amounts of resveratrol”.

B4: 4B: alfalfa CHS mutant: A1 (four), A2 (five), A3 (M158G, Y160F), A4 (K269G) (protein, UniProt P30074 1-389, looked up, variant D96A V98L V99A V100M T131S S133T G134T V135P M137L M158G Y160F K269G)
Chalcone synthase 2: MVSVSEIRKAQRAEGPATILAIGTANPANCVEQSTYPDFYFKITNSEHKTELKEKFQRMCDKSMIKRRYMYLTEEILKENPNVCEYMAPSLDARQAMLAMEVPRLGKEAAVKAIKEWGQPKSKITHLIVCSTTTPDLPGADYQLTKLLGLRPYVKRYGMFQQGCFAGGTVLRLAKDLAENNKGARVLVVCSEVTAVTFRGPSDTHLDSLVGQALFGDGAAALIVGSDPVPEIEKPIFEMVWTAQTIAPDSEGAIDGHLREAGLTFHLLGDVPGIVSKNITKALVEAFEPLGISDYNSIFWIAHPGGPAILDQVEQKLALKPEKMNATREVLSEYGNMSSACVLFILDEMRKKSTQNGLKTTGEGLEWGVLFGFGPGLTIETVVLRSVAI
Q: For B4, which naringenin amount [3] is on record?
A: The naringenin amount was “reduced amounts of naringenin compared to wild type CHS”.

Q: What about the resveratrol amount [3] of the same molecule?
A: Its resveratrol amount is “various amounts of resveratrol”.

— patent US7285380B2, “Methods of producing polyketide synthase mutants and compositions and uses thereof” (The Salk Institute for Biological Studies, priority 2000, dated 2007)
